The source of these data is patent publication US20140294825A1 (JN BIOSCIENCES, published 2014).

The target of assay [1] is T1, human FcRn (human, UniProt P55899 24-365; P61769 21-119).
T1 construct: whole, on cells; Heterodimer stably expressed on the surface of NS0 cells; also called neonatal Fc receptor; NS0/FcRn cells
Briefly: flow cytometry on NS0 cells expressing human FcRn, 1 µg/ml antibody, pH 6.0 and 7.5. Here is the method: (§1) The ability of Ch9G6-IgG1, Ch9G6-IgG1/M and Ch9G6-MVIgG1 antibodies to bind to FcRn in a pH-dependent manner was analyzed by flow cytometry using NS0 cells expressing human FcRn on the cell surface (NS0/FcRn cells). NS0/FcRn transfectants stably expressing human FcRn, a heterodimer composed of the FcRn α chain and β2-microglubulin, on the cell surface was generated following the general procedure described by Hinton et al. (J. Biol. Chem. 279:6213-6216 2004), which is incorporated herein by reference. Ch9G6-IgG1, Ch9G6-IgG1/M and Ch9G6-MVIgG1 at 1 μg/ml were separately incubated with NS0/FcRn cells at pH 6.0 and 7.5 at the primary staining step following the procedure described by Hinton et al. (supra). Antibodies binding to FcRn were detected using PE-labeled goat polyclonal anti-human gamma chain antibody (for Ch9G6-IgG1 and no antibody control) or PE-labeled goat polyclonal anti-human μ chain antibody (for Ch9G6-IgG1/M, Ch9G6-MVIgG1 and no antibody control) at the secondary staining step.
The ability of Ch9G6-IgG3D, Ch9G6-IgG3D/M and Ch9G6-MVIgG3D antibodies to bind to FcRn in a pH-dependent manner was analyzed by flow cytometry using NS0 cells expressing human FcRn on the cell surface (NS0/FcRn cells). Ch9G6-IgG3D, Ch9G6-Ig3D/M and Ch9G6-MVIgG3D at 1 μg/ml were separately incubated with NS0/FcRn cells at pH 6.0 and 7.5 at the primary staining step as described in Example 4. Antibodies binding to FcRn were detected using PE-labeled goat polyclonal anti-human gamma chain antibody (for Ch9G6-IgG3D and no antibody control) or PE-labeled goat polyclonal anti-human μ chain antibody (for Ch9G6-IgG3D/M, Ch9G6-MVIgG3D and no antibody control) at the secondary staining step.
(In general: A flow cytometer gives signals particle by particle.)

Assay [2] concerns the target T2, recombinant human CD30 extracellular region fused at the C-terminus to the human λ2 constant region (human).
T2 construct: Cysteine at the second position from the carboxyl terminus of the constant region changed to serine; also called CD30-Cλ
In words: bridging ELISA: CD79a-Fc coated, supernatant, then CD30-Cλ in solution, anti-human λ chain HRP detection; no signal means the anti-CD79a antibody did not hold CD30-Cλ. (In general: An ELISA detects its analyte on a solid surface through an enzyme-linked reagent.)

Assay [3] addresses T3, recombinant human CD30 extracellular region fused at the C-terminus to the Fc region of human γ1 chain (human).
T3 construct: also called CD30-Fc
In words: bridging ELISA: CD30-Fc coated, supernatant, then CD79a-Cλ in solution, anti-human λ chain HRP detection; no signal means the anti-CD79a antibody was not captured on CD30-Fc.

The target of assay [4] is T4, Protein G (Streptococcal, UniProt P19909 303-497).
T4 construct: Commercial resin; also called Protein G Sepharose column
In words: Protein G Sepharose column, culture supernatant.

The target of assay [5] is T1, human FcRn. In words: flow cytometry on NS0 cells expressing human FcRn, pH 6.0 and 7.5, PE anti-human µ chain detection. As for the experimental part: as §1, with “Ch9G6-IgG1, Ch9G6-IgG1/M and Ch9G6-MVIgG1 at 1 μg/ml were separately incubated with NS0/FcRn cells at pH 6.0 and 7.5 at the primary staining step following the procedure described by Hinton et al. (supra).” left out
The ability of Ch9G6-IgG3D, Ch9G6-IgG3D/M and Ch9G6-MVIgG3D antibodies to bind to FcRn in a pH-dependent manner was analyzed by flow cytometry using NS0 cells expressing human FcRn on the cell surface (NS0/FcRn cells). […] Antibodies binding to FcRn were detected using PE-labeled goat polyclonal anti-human gamma chain antibody (for Ch9G6-IgG3D and no antibody control) or PE-labeled goat polyclonal anti-human μ chain antibody (for Ch9G6-IgG3D/M, Ch9G6-MVIgG3D and no antibody control) at the secondary staining step.

For assay [6], the target named is T5, human CD16 (human, UniProt P08637 17-254).
T5 construct: whole, on cells; also called Fcγ receptor type III
Briefly: flow cytometry on HEK293 cells transiently expressing human CD16, PE anti-human µ heavy chain detection.

T1 sequence (P55899 24-365, chain 1 of 2): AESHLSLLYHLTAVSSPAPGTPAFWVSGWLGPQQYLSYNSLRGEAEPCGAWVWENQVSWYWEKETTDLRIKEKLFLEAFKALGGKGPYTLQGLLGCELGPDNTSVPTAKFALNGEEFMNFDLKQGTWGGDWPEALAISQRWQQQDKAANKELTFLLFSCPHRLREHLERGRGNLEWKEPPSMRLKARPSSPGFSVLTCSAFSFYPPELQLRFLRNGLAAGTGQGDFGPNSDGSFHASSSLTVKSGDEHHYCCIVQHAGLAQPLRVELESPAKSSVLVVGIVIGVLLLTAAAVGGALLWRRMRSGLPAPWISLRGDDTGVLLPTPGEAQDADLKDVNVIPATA
T1 sequence (P61769 21-119, chain 2 of 2): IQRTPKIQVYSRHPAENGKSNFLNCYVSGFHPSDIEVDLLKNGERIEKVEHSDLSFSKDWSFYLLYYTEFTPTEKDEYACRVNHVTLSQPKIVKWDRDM
T2 sequence (chain, as listed by the source limits assumed): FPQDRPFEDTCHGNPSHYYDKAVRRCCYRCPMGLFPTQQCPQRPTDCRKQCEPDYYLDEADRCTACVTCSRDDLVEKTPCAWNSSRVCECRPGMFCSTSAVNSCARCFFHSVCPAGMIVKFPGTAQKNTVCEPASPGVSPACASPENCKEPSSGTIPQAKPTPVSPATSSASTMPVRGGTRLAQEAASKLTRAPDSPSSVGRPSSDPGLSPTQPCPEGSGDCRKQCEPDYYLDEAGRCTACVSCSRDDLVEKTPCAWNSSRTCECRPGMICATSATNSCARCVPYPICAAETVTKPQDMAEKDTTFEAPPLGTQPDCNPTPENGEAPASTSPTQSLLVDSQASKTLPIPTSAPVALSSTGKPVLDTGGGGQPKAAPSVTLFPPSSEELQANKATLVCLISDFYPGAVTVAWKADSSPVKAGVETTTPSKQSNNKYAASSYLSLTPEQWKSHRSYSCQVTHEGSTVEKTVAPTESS
T5 sequence (P08637 17-254): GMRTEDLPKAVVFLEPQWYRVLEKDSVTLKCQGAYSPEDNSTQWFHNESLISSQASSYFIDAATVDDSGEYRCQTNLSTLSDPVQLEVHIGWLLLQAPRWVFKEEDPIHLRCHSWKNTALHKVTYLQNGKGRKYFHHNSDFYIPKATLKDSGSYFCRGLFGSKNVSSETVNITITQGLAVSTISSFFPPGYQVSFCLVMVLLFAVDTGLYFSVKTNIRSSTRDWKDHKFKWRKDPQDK
T4 sequence (P19909 303-497): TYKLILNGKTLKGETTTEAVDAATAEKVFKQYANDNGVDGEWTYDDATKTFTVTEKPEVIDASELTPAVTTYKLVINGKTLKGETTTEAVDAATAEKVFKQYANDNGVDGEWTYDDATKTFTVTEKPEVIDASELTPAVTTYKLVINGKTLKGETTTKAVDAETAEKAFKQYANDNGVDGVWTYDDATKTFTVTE
T3 sequence (chain, as listed by the source limits assumed): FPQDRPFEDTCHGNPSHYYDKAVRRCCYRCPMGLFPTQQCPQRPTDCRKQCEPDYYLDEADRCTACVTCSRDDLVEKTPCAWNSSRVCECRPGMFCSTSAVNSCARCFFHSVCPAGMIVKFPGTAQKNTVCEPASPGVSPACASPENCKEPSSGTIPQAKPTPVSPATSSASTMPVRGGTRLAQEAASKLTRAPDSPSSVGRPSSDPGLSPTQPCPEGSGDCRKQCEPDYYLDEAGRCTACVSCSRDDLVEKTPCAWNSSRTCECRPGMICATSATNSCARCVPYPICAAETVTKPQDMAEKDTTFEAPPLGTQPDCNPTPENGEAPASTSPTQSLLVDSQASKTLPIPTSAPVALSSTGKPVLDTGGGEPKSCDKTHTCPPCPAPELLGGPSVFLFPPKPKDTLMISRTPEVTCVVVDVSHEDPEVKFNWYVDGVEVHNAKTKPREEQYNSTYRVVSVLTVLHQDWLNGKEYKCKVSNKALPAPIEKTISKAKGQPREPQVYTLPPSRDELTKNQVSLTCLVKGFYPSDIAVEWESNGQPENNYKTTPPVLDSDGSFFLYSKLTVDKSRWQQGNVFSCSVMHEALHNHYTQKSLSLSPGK

B1: Ch9G6-MVIgG3D (antibody)
heavy: QVQLQQSGPELVKPGASVKISCKASGYTFSTSWMNWVKQRPGQGLEWIGRIYPGDGDTNYNGKFKGKATLTADKSSNTAYMQLSSLTSVDSAVYFCERFYYGNTFAMDYWGQGTSVTVSSASTKGPSVFPLAPCSRSTSGGTAALGCLVKDYFPEPVTVSWNSGALTSGVHTFPAVLQSSGLYSLSSVVTVPSSSLGTQTYTCNVNHKPSNTKVDKRVEPKSCDTPPPCPRCPAPELLGGPSVFLFPPKPKDTLMISRTPEVTCVVVDVSHEDPEVQFKWYVDGVEVHNAKTKPREEQYNSTFRVVSVLTVLHQDWLNGKEYKCKVSNKALPAPIEKTISKTKGQPREPQVYTLPPSREEMTKNQVSLTCLVKGFYPSDIAVEWESSGQPENNYNTTPPMLDSDGSFFLYSKLTVDKSRWQQGNIFSCSVMHEALHNRFTQKSLSLSPGKDQDTAIRVFAIPPSFASIFLTKSTKLTCLVTDLTTYDSVTISWTRQNGEAVKTHTNISESHPNATFSAVGEASICEDDWNSGERFTCTVTHTDLPSPLKQTISRPKGVALHRPDVYLLPPAREQLNLRESATITCLVTGFSPADVFVQWMQRGQPLSPEKYVTSAPMPEPQAPGRYFAHSILTVSEEEWNTGETYTCVVAHEALPNRVTERTVDKSTGKPTLYNVSLVMSDTAGTCY
light: DVLMTQIPLSLPVSLGDQASISCRSSQSIVHSNGNTYLEWYLQKPGQSPKLLIYKVSNRFSGVPDRFSGSGSGTDFTLKISRVEAEDLGVYYCFQGSHVPFTFGSGTKLEIKRTVAAPSVFIFPPSDEQLKSGTASVVCLLNNFYPREAKVQWKVDNALQSGNSQESVTEQDSKDSTYSLSSTLTLSKADYEKHKVYACEVTHQGLSSPVTKSFNRGEC
notes: Pentamer or hexamer of the H2L2 unit in native form (NS0 cells, Protein G purified); also called multivalent IgG3 antibody
B1: the binding result in assay [1] is on record as “binds”.

B2: Ch9G6-IgG3D (antibody)
heavy: QVQLQQSGPELVKPGASVKISCKASGYTFSTSWMNWVKQRPGQGLEWIGRIYPGDGDTNYNGKFKGKATLTADKSSNTAYMQLSSLTSVDSAVYFCERFYYGNTFAMDYWGQGTSVTVSSASTKGPSVFPLAPCSRSTSGGTAALGCLVKDYFPEPVTVSWNSGALTSGVHTFPAVLQSSGLYSLSSVVTVPSSSLGTQTYTCNVNHKPSNTKVDKRVEPKSCDTPPPCPRCPAPELLGGPSVFLFPPKPKDTLMISRTPEVTCVVVDVSHEDPEVQFKWYVDGVEVHNAKTKPREEQYNSTFRVVSVLTVLHQDWLNGKEYKCKVSNKALPAPIEKTISKTKGQPREPQVYTLPPSREEMTKNQVSLTCLVKGFYPSDIAVEWESSGQPENNYNTTPPMLDSDGSFFLYSKLTVDKSRWQQGNIFSCSVMHEALHNRFTQKSLSLSPGK
light: B1 light
notes: NS0 cells, Protein G purified; monomer of about 150 kDa; also called chimeric anti-CD79a IgG3 monoclonal antibody (first, second and third hinge regions eliminated)
Turning to B2, the binding result in assay [1] is “binds”.

B3: Ch9G6-MVIgG1 (antibody)
heavy: not shown
light: B1 light
notes: also called multivalent anti-CD79a IgG1 antibody
Turning to B3, the binding result in assay [2] is recorded as “no binding”; in assay [3] it was “no binding”; in assay [1], “binds”.

B4: Ch9G6-IgG1 (antibody)
heavy: not shown
light: B1 light
notes: also called chimeric IgG1 form of the mouse anti-human CD79a monoclonal antibody 9G6
Take B4: the binding result in assay [1] was “binds”.

B5: Ch9G6-IgG3D/M (antibody)
heavy: QVQLQQSGPELVKPGASVKISCKASGYTFSTSWMNWVKQRPGQGLEWIGRIYPGDGDTNYNGKFKGKATLTADKSSNTAYMQLSSLTSVDSAVYFCERFYYGNTFAMDYWGQGTSVTVSSASTKGPSVFPLAPCSRSTSGGTAALGCLVKDYFPEPVTVSWNSGALTSGVHTFPAVLQSSGLYSLSSVVTVPSSSLGTQTYTCNVNHKPSNTKVDKRVEPKSCDTPPPCPRCPDQDTAIRVFAIPPSFASIFLTKSTKLTCLVTDLTTYDSVTISWTRQNGEAVKTHTNISESHPNATFSAVGEASICEDDWNSGERFTCTVTHTDLPSPLKQTISRPKGVALHRPDVYLLPPAREQLNLRESATITCLVTGFSPADVFVQWMQRGQPLSPEKYVTSAPMPEPQAPGRYFAHSILTVSEEEWNTGETYTCVVAHEALPNRVTERTVDKSTGKPTLYNVSLVMSDTAGTCY
light: B1 light
notes: NS0 cells, purified on anti-human IgM agarose; mixture of species (650, 180, 90 kDa peaks); also called Ch9G6-Ig3D/M
Turning to B5, the binding result in assay [4] is “no binding”; in assay [5] it was “no binding (tested: 1 µg/ml)”; in assay [6], “no binding (tested: 1 µg/ml)”.
